The supplement of paper PMC12764529
± gives the half width of the 95% confidence interval.

Legend:
[1] = folding stability dG unfold (combined trypsin and chymotrypsin); higher = more stable
Summary of the method: (§1)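 Designed mini-proteins with no cysteine and under 80 residues were kept only if AlphaFold2 dimer inter-PAE was above 15. In a PA-tagged cDNA display construct, they were digested with trypsin and chymotrypsin and then sequenced. K50 was inferred by Bayesian fitting of counts, and unfolding free energy was derived per protease or combined against a sequence-predicted unfolded-state K50 and a shared folded-state K50.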

[2] = folding stability dG unfold from trypsin proteolysis; higher = more stable
Summary of the method: as §1

[3] = folding stability dG unfold from chymotrypsin proteolysis; higher = more stable
Summary of the method: as §1

Row | Sequence | folding stability dG unfold [1] [kcal/mol] | folding stability dG unfold [2] [kcal/mol] | folding stability dG unfold [3] [kcal/mol]
1 | SAGGSAGGSAGGEVKILRVEEFEDGVVRVFVEGDDPVLVIELGPDGVILSIEEVDSSELSAGGSAGGSAGGS [r10_211_TrMRF] | 0.781 ± 0.085 | 1.04 ± 0.044 | 0.562 ± 0.034
2 | SAGMNPNNPNVKTTTVTYTFPLPATESVEEAVERLKAEAEAAGKPIKTVEVTVERTPEDTVVIKATFVSSAG [r5_65_JUSTAS] | 1.59 ± 0.093 | 1.34 ± 0.072 | 1.71 ± 0.057
3 | SAGGSAGGMTITTTENPNSNLTTYDVTIGNTKVTVTVNPNNPGVIKTEGDNDVPVEVVINAVLSSAGGSAGG [r6_197_JUSTAS] | 1.21 ± 0.056 | 1.69 ± 0.059 | 0.456 ± 0.043
4 | SAGGSAGGSAWITINDVRDYLKKEGIDPKNMSAEEIASEFKDKWPNVNIEAQPNGSAWIKPSAGGSAGGSAG [r3_375_TrROS] | 0.814 ± 0.14 | 0.785 ± 0.054 | 0.535 ± 0.36
5 | SAGGSAGGSMALPPDLEVRITERTVSPDGSTTTYTVERPDGTTVTLTSEAELAALRESGVVLESAGGSAGGS [r12_455_JUSTAS] | 0.145 ± 0.089 | 0.227 ± 0.086 | -0.137 ± 0.15
6 | SAGGSVSDIVNELKKKGIKVTSIEKTEDGTYVITTELPNGVKKEYKYSTSDPKNVAALKAAIPEELVSAGGS [r16_821_JUSTAS] | 1.36 ± 0.066 | 1.44 ± 0.038 | 1.19 ± 0.072
7 | SAGGSAGGSAMIGGGEDGNLVFLVTEDGKPLVLVAPPDEIKKILEELGIKDVVVVKPLPELSAGGSAGGSAG [r3_141_TrMRF] | 0.762 ± 0.1 | 1.18 ± 0.043 | -0.0844 ± 0.13
8 | SAGGSAGGSEITLVFKTKEEAEKAAEELAKKYNVEVTVEENEETGLYVVTIKLPENGKEITILSAGGSAGGS [r12_635_TrROS_Hall] | 1.96 ± 0.19 | 1.68 ± 0.064 | 2.03 ± 0.059
9 | SAGPKIELEVDPENPNVARAKVIDPANGEEIDEVEVPVTTLPDGTVLVPAKIKYKGSGKTLELPFTVEGSAG [r5_610_TrMRF] | -0.126 ± 0.28 | -0.4 ± 0.44 | 0.133 ± 0.26
10 | SAGGSAGGSAGGMIIEKKTVEKLPDGTVKVTVSIITVNDDGKTETIKTETKIIPLSELLGSAGGSAGGSAGG [r7_521_JUSTAS] | 2.18 ± 0.11 | 2.31 ± 0.11 | 2.25 ± 0.1
11 | SAGGSAGGSIPPDVPVDLGAEVEYFPPGGVRRVRFSAPDGTPVATATFVFRGGELVEVRIEPASAGGSAGGS [r12_264_TrMRF] | 2.05 ± 0.15 | 1.89 ± 0.053 | 2.07 ± 0.13
12 | SAGGSAGGMPTLVVLREVAEKLEEGQRVRVRFRIPGTDEWVEAEVPINDPELVINFENPEVEEASAGGSAGG [r6_401_TrMRF] | 1.33 ± 0.12 | 1.06 ± 0.042 | 1.48 ± 0.097
13 | SAMVIEIEIPSEELLKKLEELLPPGARIKKVEIVKENGKVKIIVELEPGMSEEEKERIKKKIEELLKEESAG [r14_306_TrROS_Hall] | > 6 | 4.92 ± 0.46 | 3.59 ± 0.4
14 | SAGGSAGGSAMTITKTITFSSKEEAEKFVKELEEKGNITITMTYEKLPSGKYKVTVTITKPSAGGSAGGSAG [r3_273_JUSTAS] | 3.68 ± 0.2 | 3.62 ± 0.21 | 3.71 ± 0.049
15 | SAGAATINPNPLTLEIESPDGTKYTVSPEEVQKIKDELEAKGKPPTLEEILNEIKKRFPNWRVSYSPESAGG [r19_46_JUSTAS] | 3.44 ± 0.058 | 3.06 ± 0.076 | 3.59 ± 0.04
16 | SAGGSAGGSAGEKEITISILVKGEDGRLYAIKMKAKITFDEKTNELKIEIEEISITPLPPSAGGSAGGSAGG [r17_129_TrROS_Hall] | 4.32 ± 0.23 | 3.98 ± 0.21 | 4.29 ± 0.16
17 | SAGGSAGGSASMTTLEIEIELDESDIEKVKEELKKELPKNVKVIIHAYDKNGNIIEEIEIEFSAGGSAGGSA [r18_188_JUSTAS] | 1.6 ± 0.17 | 1.33 ± 0.036 | 1.61 ± 0.097
18 | SDIENMPPEQFVHYIREALDEERENNPGEPVRIPIKDLGDKFPGFPPSMLKDMLGLTEDDLNNGPITIRPSA [r9_525_TrROS] | -0.0917 ± 0.23 | -0.193 ± 0.079 | -0.189 ± 0.28
19 | SAGGSPEIPKDYEVIEIDAETLPDGSVLIPIIVRDPIIPYYLKMYYRSIPTRWEPISFELIHPDELSAGGSA [r2_371_TrMRF] | 1.45 ± 0.057 | 1.25 ± 0.018 | 1.61 ± 0.085
20 | KPKIVEKKEITIKLNGKTIKITLVKNKETGKYYAKIEIFEYDKNGKLVKKETITLEFDSLEDLLEALKKLAS [r1_288_TrROS_Hall] | 3.18 ± 0.4 | 2.14 ± 0.091 | 3.67 ± 0.071
21 | SAGGSLEEVARALARELGLPDVEVRDIPVEVLPNGTVRIPVTIVRPEAGEPLPPLEVELAPDEPLLSAGGSA [r2_137_JUSTAS] | -0.198 ± 0.14 | -0.0103 ± 0.14 | -0.236 ± 0.15

Row | Sequence | folding stability dG unfold [1] [kcal/mol] | folding stability dG unfold [2] [kcal/mol] | folding stability dG unfold [3] [kcal/mol]
22 | SSIPLDVPPGERVVRKGVFPDGSELTATYDPTTGRWTVTYYPPDGSVRTSVVPGAALASLPPGFTETRLESA [r9_1110_JUSTAS] | 2.02 ± 0.14 | 1.45 ± 0.043 | 2.28 ± 0.034
23 | SMIKPDEVVEKIEFTFPDGVAGDTRTFPVPEGSVIVYIDLGEPVYVMEILEDGSVKIEPVPEEVAKELAKSA [r9_1144_TrMRF] | 0.3 ± 0.12 | 0.37 ± 0.048 | 0.115 ± 0.1
24 | SAGGSAGGSAGGKVGPGTTVTIVEVEVVGSKINPLGLVTTDFVVKKVEVVEVEKGADLKSAGGSAGGSAGGS [r10_826_JUSTAS] | 0.0651 ± 0.12 | 0.487 ± 0.041 | -0.775 ± 0.41
25 | SAGGSAGGSGMEKIVVEVKFPDGTVETYEFPAGVPVNIDPAVTGDVKITTLDPEGKTTEYVLKSAGGSAGGS [r12_380_JUSTAS] | -0.118 ± 0.1 | -0.0804 ± 0.046 | -0.297 ± 0.2
26 | SAGGSAGGSAGGPPKPIKVLLYKPEENKLYVLVFPEGVSLEEVKKYVESHPNFKIVSVEGSAGGSAGGSAGG [r7_624_TrMRF] | 2.72 ± 0.11 | 2.04 ± 0.087 | 3 ± 0.051
27 | SAGGSAKWVLVRIELEKGGKPLEFYQRVKAKEPELDIKIPPGIEEEGFKILRIEVEEISPEELEKESAGGSA [r15_853_TrMRF] | 1.18 ± 0.15 | 0.864 ± 0.04 | 1.32 ± 0.18
28 | SAGGSSSLLEGLPGVVEVTVTTSLSVRPLSPEAARANPGQADRTVPLPRTTVTVTVEFPVSPAGILSAGGSA [r2_404_JUSTAS] | 0.94 ± 0.15 | 0.509 ± 0.1 | 1.15 ± 0.067
29 | SAGKFKIVKVEIKDGKITITVKNEKTGELVKKEITFDKKTKKLKIKLYNKNGKLIKEETKTLSLEELKKSAG [r5_308_TrROS_Hall] | 2.49 ± 0.096 | 2.06 ± 0.093 | 2.66 ± 0.071
30 | SAGSVTSVEVKEKGEVTVTTETLNIDGKPYTVVSTTTPLLDPEGNVTYTTTTTVYDPNGNKISTTPTSLSAG [r14_465_JUSTAS] | 1.84 ± 0.051 | 1.33 ± 0.033 | 2.14 ± 0.032
31 | SAGMKPGETITIENLPEGAIIYNKNGEKVEKVKEVKVTVEDGKITIEVKLEDGSTKTFTVPLEDLKIVPSAG [r5_850_TrROS_Hall] | 2.31 ± 0.14 | 1.61 ± 0.12 | 3.05 ± 0.058
32 | SAGGAMSSPVGTVTLTSPAGETVTITVYPGKTEVTTRPPDGSVTVTSLADKSVEEVIAELKAEGYEVLSSAG [r5_613_JUSTAS] | 3.25 ± 0.039 | 4 ± 0.18 | 2.99 ± 0.03
33 | SAGPKTITIWFRSPEWIRKLAKELGFEIKKVKRTGDYWSVEFTREGGKNIEIHIPDDALKELGFDLDDISAG [r5_12_TrROS] | 2.25 ± 0.057 | 2.3 ± 0.044 | 2.28 ± 0.089
34 | SAGGMKPKEVIEIEITLPDGRKIRIRLVKKDGKLYLFIEVPEENEEARELAEELAKKLPGVEVEVFEPSAGG [r13_34_TrROS_Hall] | 3.03 ± 0.14 | 2.41 ± 0.1 | 3.26 ± 0.12
35 | SAGGSAGGGMMLTLSSQTTQTSYDPSGLSTTLSLTTNPLGGTTVVTTTTVPGTGEVSVTTTPSSSAGGSAGG [r6_977_JUSTAS] | 1.04 ± 0.045 | 1.32 ± 0.024 | 0.508 ± 0.065
36 | SAGKAIFTVVPIIPKTGKKYSISKFEITLKEGEKIPIKAIADKIPPKNYIVETEIHPDHIHVTVYVLDGSAG [r5_269_TrMRF] | 1.25 ± 0.17 | 0.665 ± 0.08 | 1.61 ± 0.11
37 | SAGGEPLFGGSFSAEPYRTADGRLVYIVPEVTLPNGRKARAAVIYDPSTGRPIVVLYLGDKPIVLDASAGGS [r16_766_TrMRF] | 2.24 ± 0.026 | 1.889 ± 0.017 | 2.41 ± 0.039
38 | SAGGMTITVTKKTKPEDVEKLVEEIKEELEKKGYNVKKIEVTYKVVKDPNSSNEIVELTLTIEVEKPSAGGS [r8_475_JUSTAS] | 5.28 ± 0.31 | 4.55 ± 0.89 | 5.03 ± 0.21
39 | SAGGSAGGEGWRPLNVWIPFPDPKARLDEIVDMISKLFGWPIKIKITEVIPGDPDMIRVTIYVPSAGGSAGG [r6_211_TrROS] | 3.47 ± 0.091 | 3.41 ± 0.11 | 3.53 ± 0.056
40 | SAGGSAGGSAGGKTIVLLDEETNELVTIEIDEETGEVKITVVRLKDGKLETKTETIKLPSAGGSAGGSAGGS [r10_756_TrROS_Hall] | 2.07 ± 0.19 | 1.93 ± 0.091 | 2.23 ± 0.21
41 | SAGGAPVGKFKFELNFPELGENVRSVEATVDPVKGTVTVNFELPGSGKPLTLTVPVKLVSPDNPELFSAGGS [r8_193_TrMRF] | 0.613 ± 0.082 | 0.37 ± 0.059 | 0.759 ± 0.12
42 | SAMEITIEKDENGNIRITLKLDGAEIIEEKEVPPGEKEKTIKIKVDGKVLELTIKDGKIEIKEVSPEDLSAG [r14_403_TrROS_Hall] | 3.44 ± 0.13 | 2.93 ± 0.14 | 3.55 ± 0.1
